According to US10654939 (BEIJING MABWORKS BIOTECH, dated 2020):
Numbering of substitutions follows the chain as printed.

T1: rhesus CD40 expressed on HEK293A cells (rhesus monkey, UniProt P25942 21-277 (human entry))
T1 construct: also called HEK293A/rhesusCD40
T1 chain: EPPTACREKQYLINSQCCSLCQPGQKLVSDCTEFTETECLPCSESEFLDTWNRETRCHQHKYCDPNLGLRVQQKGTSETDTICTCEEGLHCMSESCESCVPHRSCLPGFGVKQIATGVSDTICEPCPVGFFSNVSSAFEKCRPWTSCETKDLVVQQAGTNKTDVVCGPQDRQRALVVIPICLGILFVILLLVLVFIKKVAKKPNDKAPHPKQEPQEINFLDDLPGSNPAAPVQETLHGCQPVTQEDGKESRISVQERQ

B1: chimeric 142F7 antibody (antibody, human IgG2, kappa, V domains shown)
VH: EVQLEQSGAELVRPGTSVKVSCKASGYAFTNYLIEWGIQRPGQGLEWIGVINPGTGGTNYNEKFKDKATLTTDKSSSTAYMQLSSLTSDDSAVYFCARGGSGFAYWGQGTLVTVSA
VL: DIVLTQTTSSLSASLGDRVTISCRASQDINNYLNWYQQKPDGTVKLLIYYTSRLHSGVPSRFSGSGSGTDYSLTISNLEQEDIATYFCQQGNTLPWTFGGGTKLEIKR
notes: Mouse variable regions with human IgG2/kappa constant regions
B2: chimeric 7B4 antibody (antibody, human IgG2, kappa, V domains shown)
VH: EVQLQESGPGLVKPSQSLSLTCSVTGYSITTNYYWNWIRQFPGNKLEWMGYIKYDGSNNYNPSLKNRISITRDTSKNQFFLKLNSVTTEDTATYYCARLDYWGQGTSVTVSS
VL: DIVLTQSPLSLPVSLGDQASISCRSSQSLENSNGNTFLNWFLQKPGQSPQLLIYKVSNRFSGVLDRFSGTGSGTDFTLTISRVEAEDLGVYFCLQVTHVPFTFGSGTKLEIKR
notes: as for B1
B3: chimeric 16A6 antibody (antibody, human IgG2, kappa, V domains shown)
VH: B2 VH with Q5E, E6Q, Y34H
VL: B2 VL with P8T, P12S, F76L
notes: as for B1
B4: chimeric 77D9 antibody (antibody, human IgG2, kappa, V domains shown)
VH: QVKLEESGGGLVKPGGSLKLSCAASGFTFRNYAMSWVRQSPGERLEWVAEVSGSGYYTYYPDTVTGRFTISRDNANNTLYLEVSSLRSEDTAMYYCTSRAYWGQGTLVTVSA
VL: IVMTQSPTLSLPVSLGDQASISCRSSQSIVLTNGNTYLEWYLQRPGQSPKLLIYKVSNRFSGVPDRFSGSGSGTDFTLKISRVEAEDLGVYYCFQGSHVPYTFGGGTKLEIKR
notes: as for B1
B5: 13A2-VH2VL2 (antibody, human IgG2, kappa, V domains shown)
VH: QVQLQESGPGLVKPSDTLSLTCAVSGYSITTNYYWNWIRQPPGKGLEWMGYINYDGSNNYNPSLKNRITISVDTSKNQFSLKLSSVTAVDTAVYYCARLDYWGQGTLVTVSS
VL: DVVLTQSPLSLPVTLGQPASISCRSSQSLENSNGNTFLNWFQQRPGQSPRLLIYKVSNRFSGVPDRFSGSGSGTDFTLKISRVEAEDVGVYYCLQVTHVPFTFGQGTKLEIKR
notes: Humanized, human IgG2/kappa
B6: 7B4-VH3VL3 (antibody, human IgG2, V domains shown)
VH: B5 VH with K44N, G45K, N53K
VL: B5 VL with Y92F, Q105S
notes: Humanized, human IgG2/kappa
B7: 13A2-VH2VL3 (antibody, human IgG2, kappa, V domains shown)
VH: B5 VH
VL: B5 VL with Y92F, Q105S
notes: Humanized, human IgG2/kappa
B8: 7B4-VH0VL0 (antibody, human IgG2, kappa, V domains shown)
VH: B5 VH with M49I, N53K, I68V, I70M
VL: B5 VL with L4M, L51R
notes: Humanized, human IgG2/kappa
B9: 7B4-VH3VL2 (antibody, human IgG2, V domains shown)
VH: B5 VH with K44N, G45K, N53K
VL: B5 VL
notes: Humanized, human IgG2/kappa
B10: 13A2-VH0VL0 (antibody, human IgG2, kappa, V domains shown)
VH: B5 VH with M49I, I68V, I70M
VL: B5 VL with L4M, L51R
notes: Humanized, human IgG2/kappa
B11: 7B4-VH2VL3 (antibody, human IgG2, kappa, V domains shown)
VH: B5 VH with N53K
VL: B5 VL with Y92F, Q105S
notes: Humanized, human IgG2/kappa
B12: chimeric 50F6 antibody (antibody, human IgG2, kappa, V domains shown)
VH: QVQLEQSGDDLVKPGASVKLSCKASGYTFTTYWINWIKQRPGQGLEWIGRISPGSGSTHYNEMFKGKATLTVDTSSSTAYIQLSSLSSEDSAVYFCTRNDYWGQGTTLTVSS
VL: DIVLTQSPLSLPVSLGDQASISCRSSQSIVNSNGNTYLEWYLQKPGQSPKLLIYKVSNRFSGVPDRFSGSGSGTDFTLKISRVEAEDLGVYYCFQGSHVPLTFGAGTKLELKR
notes: as for B1
B13: chimeric 92F6 antibody (antibody, human IgG2, kappa, V domains shown)
VH: QVQLEQSGAEVVKPGASVKVSCTASGFNIKDTYMHWVKQRPEQGLEWIGRIDPANGNTNYDPKFQGKATITADTSSNTGYLQLSSLTSEDTAVYYCSRWGYDWYFDVWGAGTSVTVSS
VL: DIVITQSTAIMSASPGEKVTITCSASSSVSYIHWFQQKPGTSPKLWIYTTANLASGVPARFSGSGSGTSYSLTISRMEAEDAATYYCQQRSNYPFTFGSGTKLEIKR
notes: as for B1
B14: chimeric 29A10 antibody (antibody, human IgG2, kappa, V domains shown)
VH: QVKLEQSGGGLVKPGGSLKLSCAASGFTFSHYYMYWVRQTPEKRLEWVATISDAGSYTYYSDSVKGRFTISRDNAKNNLYLQMSSLKSDDTAMYFCARTYYRGDGGYWFFDVWGAGTAVTVSS
VL: DIVITQSTSSLAVSVGEKVTMSCESSQSLLYSSNQKNYLAWYQQKPGQSPKLLIYWASTRESGVPDRFTASGSGTDFTLTISSVKAEDLAVYYCQQYYRSPLTFGAGTKLELKR
notes: as for B1

Experiments:
[1] = target: T2, mouse CD40 expressed on HEK293A cells (mouse, UniProt P27512 20-289); test: FACS, HEK293A/mouseCD40 cells
T2 construct: also called HEK293A/mouseCD40
T2 sequence (P27512 20-289 limits assumed): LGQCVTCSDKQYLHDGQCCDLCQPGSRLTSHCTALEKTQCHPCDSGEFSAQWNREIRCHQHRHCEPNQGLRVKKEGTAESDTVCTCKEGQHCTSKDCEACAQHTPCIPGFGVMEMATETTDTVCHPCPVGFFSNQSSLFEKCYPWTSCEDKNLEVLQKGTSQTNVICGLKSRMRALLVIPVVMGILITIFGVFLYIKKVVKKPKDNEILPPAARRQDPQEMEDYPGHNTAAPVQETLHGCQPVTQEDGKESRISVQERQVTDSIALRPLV

[2] = target: T3, recombinant human CD40 (ECD)-his (human, UniProt P25942 21-193); test: SPR (Biacore 8K), hCD40(ECD)-his coupled to chip, antibody injected
T3 construct: Bought protein; also called hCD40(ECD)-his; TNFRSF5
T3 sequence (P25942 21-193): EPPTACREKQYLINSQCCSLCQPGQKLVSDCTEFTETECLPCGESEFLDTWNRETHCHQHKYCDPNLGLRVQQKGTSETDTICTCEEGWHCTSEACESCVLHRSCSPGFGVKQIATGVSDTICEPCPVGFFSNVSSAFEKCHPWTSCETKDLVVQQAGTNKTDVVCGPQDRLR
Experimental: SPR assays were used to determine the binding affinity of the chimetic or humanized anti-CD40 antibodies to human CD40 with the BIAcore™ 8K instrument (GE Life Sciences). Briefly, 100-200 response units (RU) of human CD40 (ECD)-his protein (Sino Biological, CN, Cat #: 10774-H08H) were coupled to CM5 biosensor chips (Cat #: BR-1005-30, GE Life Sciences), followed by blocking of un-reacted groups with 1M ethanolamine. Serially diluted antibodies at concentrations ranging from […] were injected into the SPR running buffer (HBS-EP buffer, pH7.4, GE Life Sciences; US; Cat #: BR-1006-69) at 30 μL/minute. The binding capacity was calculated with the RUs of blank controls subtracted. The association rate (k_a) and dissociation rate (k_d) were calculated using the one-to-one Langmuir binding model (BIA Evaluation Software, GE Life Sciences). The equilibrium dissociation constant K_D was calculated as the k_d/k_a ratio.

[3] = target: T1, rhesus CD40 expressed on HEK293A cells; test: FACS on HEK293A/rhesus CD40 cells, serially diluted antibody (Example 14, protocol of Example 5)
Experimental: Example 5 Mouse Anti-CD40 Monoclonal Antibodies Bound to Human and Rhesus CD40 Expressed on HEK293A Cells To further determine whether anti-CD40 antibodies bound to human, monkey or mouse CD40 expressed on HEK293A cells, a cell-based binding assay by FACS was performed using the HEK293A cells stably overexpressing human, monkey or mouse CD40 as generated in Example 1, respectively. Briefly, 10^5 HEK293A cells were seeded into each well of the 96-well plates and serially diluted anti-CD40 antibodies were added to the plates. After incubated at 4° C. for 1 hour, plates were washed 3 times with PBST. Then, an APC coupled Goat Anti-Mouse IgG (BioLegen, US, Cat #: 405308) diluted 500× was added to the plates. After incubation at 4° C. for 1 hour, the plates were washed with PBS for 3 times and then cell fluorescence was monitored using a FACS machine (BD).
The chimeric and humanized anti-CD40 antibodies were further characterized for their ability of binding to HEK293A/humanCD40 cells and HEK293A/rhesus CD40 cells, following the protocols described in Example 5. They were also tested for their ability to activate CD40 signaling in HEK-Blue assay, and to promote dendritic cell maturation, following the protocols in Example 7 and Example 9, respectively, the dendritic cells collected form three healthy human donors. IL-12(p40) secretion by the dendritic cells was measured by using human IL12(p40) ELISA kit (BD, US, Cat #: 551116) following themanufactor's instruction.

Binder | binding result [1] | Kd [2] | koff [2] | kon [2] | binding result [3] | EC50 (read off the curve) [3]
B1 | no binding | – | – | – | – | –
B2 | no binding | 3.6 nM | 0.0036 s⁻¹ | 1e+06 M⁻¹ s⁻¹ | – | –
B3 | no binding | – | – | – | – | –
B4 | no binding | – | – | – | – | –
B5 | – | 2.08 nM | 0.00171 s⁻¹ | 823000 M⁻¹ s⁻¹ | binds | –
B6 | – | 2.99 nM | 0.00488 s⁻¹ | 2.13e+06 M⁻¹ s⁻¹ | – | ~0.2 µg/mL
B7 | – | 3.55 nM | 0.00261 s⁻¹ | 735000 M⁻¹ s⁻¹ | binds | –
B8 | – | 2.47 nM | 0.0068 s⁻¹ | 2.75e+06 M⁻¹ s⁻¹ | – | ~0.2 µg/mL
B9 | – | 4.2 nM | 0.00615 s⁻¹ | 1.46e+06 M⁻¹ s⁻¹ | – | ~0.2 µg/mL
B10 | – | 28.8 nM | 0.0114 s⁻¹ | 396000 M⁻¹ s⁻¹ | binds | –
B11 | – | 3.6 nM | 0.00639 s⁻¹ | 1.78e+06 M⁻¹ s⁻¹ | – | ~0.2 µg/mL
B12 | no binding | – | – | – | – | –
B13 | no binding | – | – | – | – | –
B14 | no binding | – | – | – | – | –
